These results are taken from article PMC3912200, “Structural and Functional Characterization of Cargo-Binding Sites on the μ4-Subunit of Adaptor Protein Complex 4” (PLoS ONE, 2014).

The test system of the experiment is APP-GFP. Description: Distribution of APP-GFP in H4 neuroglioma cells. The note with it: untagged; 36 h; APP-GFP F615P/D664A; TGN46, EEA1 staining. The experiment is classed as cell-based, human. The procedure:
H4 human neuroglioma or MDA-MB-231 human mammary gland epithelial cells obtained from the American Type Culture Collection (Manassas, VA) were maintained in DMEM (H4) or DMEM/F12 (MDA-MB-231) supplemented with 10% (v/v) fetal bovine serum (FBS), 100 U/ml penicillin and 100 µg/ml streptomycin (Life Technologies). Transfections were carried out using Lipofectamine 2000 (Life Technologies) for 1 h at 37°C in the absence of FBS, and cells were analyzed 16, 24 or up to 36-h after transfection, for which we observed no notorious signs of loss in cell viability. SDS-PAGE, immunoblotting, and immunoprecipitation were performed as described. […]
Indirect immunofluorescence staining of fixed, permeabilized cells was performed as previously described, using sheep polyclonal antibody anti-TGN46 (Serotec), and mouse monoclonal antibody anti-EEA1 (BD Biosciences) or rabbit polyclonal antibody anti-EEA1 (Santa Cruz Biotechnology), followed by the secondary antibodies Alexa-647–conjugated donkey anti-mouse IgG, Alexa-594–conjugated donkey anti-rabbit IgG, or Alexa-594– or -647–conjugated donkey anti-sheep IgG (Life Technologies). […] Quantitative analysis of colocalization was performed as we previously described, with minor modifications. […]

B1: µ4-F255A: untagged full-length μ4-F255A, overexpressed (protein, UniProt O00189 1-453, looked up, variant F255A)
chain: MISQFFILSSKGDPLIYKDFRGDSGGRDVAELFYRKLTGLPGDESPVVMHHHGRHFIHIRHSGLYLVVTTSENVSPFSLLELLSRLATLLGDYCGSLGEGTISRNVALVYELLDEVLDYGYVQTTSTEMLRNFIQTEAVVSKPFSLFDLSSVGLFGAETQQSKVAPSSAASRPVLSSRSDQSQKNEVFLDVVERLSVLIASNGSLLKVDVQGEIRLKSFLPSGSEMRIGLTEEFCVGKSELRGYGPGIRVDEVSAHSSVNLDEFESHRILRLQPPQGELTVMRYQLSDDLPSPLPFRLFPSVQWDRGSGRLQVYLKLRCDLLSKSQALNVRLHLPLPRGVVSLSQELSSPEQKAELAEGALRWDLPRVQGGSQLSGLFQMDVPGPPGPPSHGLSTSASPLGLGPASLSFELPRHTCSGLQVRFLRLAFRPCGNANPHKWVRHLSHSDAYVIRI
modifications: full-length
notes: untagged full-length μ4-F255A, overexpressed
As for B1, the “APP redistribution (figure title)” value is “APP redistributes from endosomes to the TGN”.
